In patent CN110156894A (JIANGSU NUOMAIBO BIOMEDICAL TECH CO LTD, dated 2019):

T1: 重组TEM8蛋白(义翘神州) (human, UniProt Q9H6X2 33-321, limits assumed)
T1 construct: also called TEM8重组蛋白; recombinant TEM8 protein (Sino Biological)
T1 sequence (looked up): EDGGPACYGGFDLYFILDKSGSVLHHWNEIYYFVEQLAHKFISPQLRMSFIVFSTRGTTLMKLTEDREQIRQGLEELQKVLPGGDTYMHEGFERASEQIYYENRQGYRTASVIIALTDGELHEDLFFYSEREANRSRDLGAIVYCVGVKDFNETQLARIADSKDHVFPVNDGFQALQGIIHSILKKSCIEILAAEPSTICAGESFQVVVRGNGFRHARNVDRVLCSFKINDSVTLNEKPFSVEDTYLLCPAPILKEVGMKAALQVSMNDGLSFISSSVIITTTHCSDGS


Legend:
TEM8 on TEM8过表达细胞 [1] = target: T2, TEM8 on TEM8过表达细胞 (UniProt Q9H6X2 33-564, limits assumed); assay: cell-based assay on TEM8 overexpressing cells, anti-human-IgG-Eu fluorescence
T2 construct: whole, on cells; One molecule is used for cell-surface TEM8 on both cell lines; the cell line is named under assay; also called TEM8稳定过表达细胞株 (CHO-K1); TEM8过表细胞

重组TEM8蛋白(义翘神州) [2] = target: T1, 重组TEM8蛋白(义翘神州); assay: ELISA on plate-bound TEM8 protein, method as in Example 2
重组TEM8蛋白(义翘神州) [3] = target: T1, 重组TEM8蛋白(义翘神州); assay: ELISA, antibody on plate-bound TEM8 protein, anti-human IgG-HRP, OD450
TEM8 on TEM8过表达细胞 [4] = target: T2, TEM8 on TEM8过表达细胞; assay: cell-based ELISA on HCT116/TEM8 cells

EC50 (TEM8 on TEM8过表达细胞 [1])	EC50 (重组TEM8蛋白(义翘神州) [2])	EC50 (重组TEM8蛋白(义翘神州) [3])	EC50 (TEM8 on TEM8过表达细胞 [4])	Binder
0.105 µg/mL	0.00176 µg/mL	0.00317 µg/mL	0.128 µg/mL	HUT104 (antibody, human IgG1, kappa, V domains shown, also called TEM8抗体HUT104; 单克隆抗体HUT104) VH: EVQLQESGPGLVKPSETLSLTCTVTGDSISSDYWNWVRQAPGQRLEWMGYISYSGNTYTNPSLKSRITINRDTSKNQFSLQLNSVTPEDTAVYYCARYKTITSAFDVWGQGTTVTVSS VL: EIVMTQSPATLSVSPGERATLSCRASQNIRDFLHWYQQKPGQAPRLLIYYASQSISGIPARFSGSGSGTDFTLTISSLEPEDFAVYYCQNGHSFPYTFGGGTKVEIKR
0.113 µg/mL	–	0.00357 µg/mL	–	HUT105 (antibody, human IgG1, kappa, V domains shown, also called TEM8抗体; 单克隆抗体HUT105) VH: EVQLQESGPGLVKPSETLSLTCTVTGDSISSDYWNWVRQAPGQRLEWMGYISYSGNTYTNPSLKSRITINRDTSKNQFSLQLNSVTPEDTAVYYCARYKTITSMFDVWGQGTTVTVSS VL: EIVMTQSPATLSVSPGERATLSCRASQNIRDFLHWYQQKPGQAPRLLIYYASQSISGIPARFSGSGSGTDFTLTISSLEPEDFAVYYCQNGHSFPYTFGGGTKVEIKR
0.13 µg/mL	–	0.00453 µg/mL	–	HUT103 (antibody, human IgG1, kappa, V domains shown, also called TEM8抗体; 单克隆抗体HUT103) VH: EVQLQESGPGLVKPSETLSLTCTVTGDSISSDYWNWVRQAPGQRLEWMGYISYSGNTYTNPSLKSRITINRDTSKNQFSLQLNSVTPEDTAVYYCARYKTITSVLDVWGQGTTVTVSS VL: EIVMTQSPATLSVSPGERATLSCRASQNIRDFLHWYQQKPGQAPRLLIYYASQSISGIPARFSGSGSGTDFTLTISSLEPEDFAVYYCQNGHSFPYTFGGGTKVEIKR
